Data: US20040048377A1

biological target: mouse Grg4 (mouse) (UniProt Q62441); test: cell-based or functional assay
Sequence (Q62441 whole entry): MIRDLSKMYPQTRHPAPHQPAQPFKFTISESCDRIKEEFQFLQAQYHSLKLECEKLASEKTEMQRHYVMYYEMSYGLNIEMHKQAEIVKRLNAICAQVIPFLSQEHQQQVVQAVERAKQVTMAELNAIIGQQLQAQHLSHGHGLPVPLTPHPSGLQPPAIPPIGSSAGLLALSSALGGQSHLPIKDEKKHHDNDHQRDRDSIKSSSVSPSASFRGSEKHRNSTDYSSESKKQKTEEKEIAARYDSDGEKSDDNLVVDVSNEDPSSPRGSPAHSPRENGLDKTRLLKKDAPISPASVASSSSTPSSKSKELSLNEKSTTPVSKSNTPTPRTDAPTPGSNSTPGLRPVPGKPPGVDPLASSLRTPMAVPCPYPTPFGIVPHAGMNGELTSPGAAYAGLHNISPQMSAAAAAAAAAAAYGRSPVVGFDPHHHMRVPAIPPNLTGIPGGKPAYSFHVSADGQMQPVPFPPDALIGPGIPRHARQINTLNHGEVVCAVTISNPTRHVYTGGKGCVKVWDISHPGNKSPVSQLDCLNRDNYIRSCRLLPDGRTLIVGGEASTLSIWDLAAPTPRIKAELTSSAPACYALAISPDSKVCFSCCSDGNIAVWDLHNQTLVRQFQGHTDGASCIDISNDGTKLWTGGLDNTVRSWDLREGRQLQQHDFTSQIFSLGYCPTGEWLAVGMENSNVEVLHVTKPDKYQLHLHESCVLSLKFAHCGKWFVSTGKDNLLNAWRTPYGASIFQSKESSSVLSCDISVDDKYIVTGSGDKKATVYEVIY

mouse Grg4, sequence (Q62441 whole entry): as above

Row | Substance | repressor activity in the UAS-luciferase reporter assay in COS-7 cells, with increasing amounts of co-transfected Grg4 [fold]
1 | Gal-Nkx2.2 (full-length Nkx2.2 fused to the DNA binding domain of yeast Gal4) (from UniProt P04386 1-147) | < 10
2 | Gal-Nkx2.9 (full-length Nkx2.9 fused to the DNA binding domain of yeast Gal4) (from UniProt P04386 1-147; O70584 1-235) | < 10
3 | Gal-Nkx6.1 (full-length Nkx6.1 fused to the DNA binding domain of yeast Gal4) (from UniProt P04386 1-147; O35762 1-365) | < 10
4 | Gal-Nkx6.1ΔTN (Nkx6.1 lacking aa 90-113 fused to the DNA binding domain of yeast Gal4) (from UniProt P04386 1-147; O35762 1-89; O35762 114-365) | 2
5 | Gal-Nkx6.2 (full-length Nkx6.2 fused to the DNA binding domain of yeast Gal4) (from UniProt P04386 1-147; P43688 1-289) | < 10
6 | Gal-Nkx6.2ΔTN (Nkx6.2 lacking aa 2-73 fused to the DNA binding domain of yeast Gal4) (from UniProt P04386 1-147) | 2

biological target: Nkx6.1ΔTN (Nkx6.1 with the TN domain deleted, Δaa 90-113) (rat) (UniProt O35762); test: immuno-precipitation, 35S-labelled Grg4, Nkx protein on antibody-proteinA-sepharose
Sequence (O35762 other isoform, or with tags, fused parts or gaps mutant): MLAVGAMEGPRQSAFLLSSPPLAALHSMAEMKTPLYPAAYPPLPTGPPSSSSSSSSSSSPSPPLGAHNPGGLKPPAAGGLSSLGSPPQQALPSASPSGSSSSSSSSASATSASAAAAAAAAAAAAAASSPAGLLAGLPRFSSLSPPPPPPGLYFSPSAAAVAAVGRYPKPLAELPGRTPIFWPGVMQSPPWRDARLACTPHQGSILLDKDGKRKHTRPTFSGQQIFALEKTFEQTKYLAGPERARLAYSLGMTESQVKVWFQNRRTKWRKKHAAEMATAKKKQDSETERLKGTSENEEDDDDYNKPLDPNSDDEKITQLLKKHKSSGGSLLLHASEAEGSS

Row | Substance | fold reduction of the interaction with Grg4 compared to the full-length protein [fold]
7 | mouse Grg4 (from UniProt Q62441 1-773) | 5
